Data published in the supplement of paper PMC9112550, “Optimization of the antimicrobial peptide Bac7 by deep mutational scanning” (BMC Biology, 2022).

These sequences were tested on Escherichia coli TOP10 (assay: shrunken log2 fold change of peptide-encoding DNA abundance (4.5 h post-induction vs induction); higher = less antimicrobial activity (less host growth inhibition)). Settings: time post-induction: 4.5 h; library: site-saturation at positions 5, 18, 19, 20.
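Also: peptides expressed intracellularly from a pBAD plasmid library in pooled LB shake-flask culture, induced with 0.3% L-arabinose, DNA abundance read by NGS, three biological replicates, DESeq2 with apeglm shrinkage.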

Sequence | shrunken log2 fold change
RRIRERPPRLPRPRPRPDFDPRP | -0.356
RRIRMRPPRLPRPRPRPFTLPRP | -0.0107
RRIRSRPPRLPRPRPRPADHPRP | -0.166
RRIRFRPPRLPRPRPRPRFDPRP | -0.248
RRIRTRPPRLPRPRPRPLMMPRP | -0.314
RRIRDRPPRLPRPRPRPKQNPRP | 0.277
RRIRQRPPRLPRPRPRPAGAPRP | 0.666
RRIRSRPPRLPRPRPRPNRNPRP | -0.163
RRIRERPPRLPRPRPRPWGVPRP | -0.284
RRIRSRPPRLPRPRPRPRHDPRP | 0.23
RRIRGRPPRLPRPRPRPLCNPRP | 0.388
RRIRWRPPRLPRPRPRPKKKPRP | -0.139
RRIRLRPPRLPRPRPRPSTEPRP | 0.0451
RRIRSRPPRLPRPRPRPPIYPRP | -0.0803
RRIRERPPRLPRPRPRPKYAPRP | 0.0159
RRIRSRPPRLPRPRPRPTHQPRP | 0.417
RRIRNRPPRLPRPRPRPMMFPRP | -0.0478
RRIRPRPPRLPRPRPRPPVPPRP | 0.564
RRIRPRPPRLPRPRPRPPSIPRP | -0.0949
RRIRRRPPRLPRPRPRPWHNPRP | -0.279
RRIRIRPPRLPRPRPRPAQRPRP | 0.0422
RRIRFRPPRLPRPRPRPTAPPRP | 0.602
RRIRYRPPRLPRPRPRPHMYPRP | -0.327
RRIRKRPPRLPRPRPRPPYAPRP | 0.424
RRIRKRPPRLPRPRPRPKFIPRP | -1.04

Sequence | shrunken log2 fold change
RRIRYRPPRLPRPRPRPQLLPRP | -0.42
RRIRDRPPRLPRPRPRPAIDPRP | 0.336
RRIRTRPPRLPRPRPRPMCPPRP | -0.017
RRIRTRPPRLPRPRPRPEDEPRP | 0.0995
RRIRTRPPRLPRPRPRPDDYPRP | -0.111
RRIRSRPPRLPRPRPRPPELPRP | 0.629
RRIRDRPPRLPRPRPRPQLFPRP | -0.0901
RRIRNRPPRLPRPRPRPTWQPRP | 0.0252
RRIRRRPPRLPRPRPRPGLFPRP | 0.389
RRIRLRPPRLPRPRPRPHMGPRP | -0.386
RRIRLRPPRLPRPRPRPDQAPRP | -0.00133
RRIRGRPPRLPRPRPRPGEQPRP | 1.23
RRIRRRPPRLPRPRPRPSWDPRP | -0.102
RRIRKRPPRLPRPRPRPEGTPRP | 0.0154
RRIRCRPPRLPRPRPRPCNFPRP | -0.0198
RRIRARPPRLPRPRPRPWPDPRP | 0.17
RRIRNRPPRLPRPRPRPYDFPRP | 0.0143
RRIRKRPPRLPRPRPRPFTTPRP | -0.243
RRIRMRPPRLPRPRPRPWFDPRP | 0.00362
RRIRIRPPRLPRPRPRPDPPPRP | 0.075
RRIRMRPPRLPRPRPRPRPKPRP | 1.07
RRIRFRPPRLPRPRPRPQFPPRP | -0.16
RRIRWRPPRLPRPRPRPFSAPRP | -0.133
RRIRQRPPRLPRPRPRPGHSPRP | -0.00616
RRIRYRPPRLPRPRPRPTNTPRP | -1.15

Sequence | shrunken log2 fold change
RRIRRRPPRLPRPRPRPLNSPRP | 0.134
RRIRIRPPRLPRPRPRPHIKPRP | -1.12
RRIRMRPPRLPRPRPRPAEVPRP | 0.411
RRIRLRPPRLPRPRPRPDMKPRP | -0.286
RRIRVRPPRLPRPRPRPDHQPRP | -0.00679
RRIRARPPRLPRPRPRPYVMPRP | -0.211
RRIRYRPPRLPRPRPRPKKKPRP | -0.104
RRIRGRPPRLPRPRPRPEPFPRP | 0.218
RRIRGRPPRLPRPRPRPIHPPRP | 0.0319
RRIRYRPPRLPRPRPRPWMDPRP | -0.159
RRIRERPPRLPRPRPRPQEMPRP | -0.391
RRIRHRPPRLPRPRPRPPKCPRP | 0.145
RRIRKRPPRLPRPRPRPWKHPRP | -0.339
RRIRRRPPRLPRPRPRPCQAPRP | 0.0144
RRIRYRPPRLPRPRPRPILFPRP | -0.945
RRIRQRPPRLPRPRPRPPVPPRP | 0.197
RRIRKRPPRLPRPRPRPAHSPRP | 0.0695
RRIRRRPPRLPRPRPRPHACPRP | 0.192
RRIRGRPPRLPRPRPRPYMKPRP | -0.493
RRIRCRPPRLPRPRPRPMPPPRP | 0.914
RRIRFRPPRLPRPRPRPKLPPRP | 0.404
RRIRQRPPRLPRPRPRPCGHPRP | 0.0101
RRIRLRPPRLPRPRPRPEFCPRP | 0.11
RRIRERPPRLPRPRPRPGSYPRP | -0.868
RRIRQRPPRLPRPRPRPSQAPRP | 0.103

Sequence | shrunken log2 fold change
RRIRPRPPRLPRPRPRPAQEPRP | 0.171
RRIRNRPPRLPRPRPRPKSRPRP | -0.0139
RRIRFRPPRLPRPRPRPVSYPRP | 0.0168
RRIRQRPPRLPRPRPRPHWQPRP | -0.147
RRIRNRPPRLPRPRPRPEEGPRP | 0.234
RRIRTRPPRLPRPRPRPLKRPRP | -0.236
RRIRDRPPRLPRPRPRPHKYPRP | -0.116
RRIRHRPPRLPRPRPRPIDPPRP | 0.0865
RRIRCRPPRLPRPRPRPNNDPRP | -0.643
RRIRLRPPRLPRPRPRPNPAPRP | -0.0363
RRIRQRPPRLPRPRPRPQFQPRP | -0.265
RRIRCRPPRLPRPRPRPHWMPRP | -0.371
RRIRNRPPRLPRPRPRPNNDPRP | -0.934
RRIRHRPPRLPRPRPRPVACPRP | 0.00664
RRIRHRPPRLPRPRPRPRQNPRP | 0.0341
RRIRSRPPRLPRPRPRPYIVPRP | -0.646
RRIRLRPPRLPRPRPRPEDMPRP | 0.0524
RRIRERPPRLPRPRPRPSPFPRP | -0.972
RRIRDRPPRLPRPRPRPFPNPRP | -0.503
RRIRLRPPRLPRPRPRPYQVPRP | -0.0302
RRIRTRPPRLPRPRPRPPGTPRP | 0.331
RRIRSRPPRLPRPRPRPHTCPRP | -0.215
RRIRGRPPRLPRPRPRPLYQPRP | 0.0508
RRIRMRPPRLPRPRPRPGWCPRP | 0.181
RRIRTRPPRLPRPRPRPYPHPRP | 0.0321

Sequence | shrunken log2 fold change
RRIRCRPPRLPRPRPRPVNNPRP | -0.327
RRIRTRPPRLPRPRPRPKAKPRP | -0.0262
RRIRLRPPRLPRPRPRPSDRPRP | -0.147
RRIRERPPRLPRPRPRPARWPRP | 0.592
RRIRSRPPRLPRPRPRPHFVPRP | -0.0872
RRIRDRPPRLPRPRPRPWVWPRP | 0.702
RRIRGRPPRLPRPRPRPSFLPRP | -0.118
RRIRCRPPRLPRPRPRPTGDPRP | 0.231
RRIRDRPPRLPRPRPRPHFKPRP | -0.148
RRIRFRPPRLPRPRPRPSRLPRP | 0.014
RRIRERPPRLPRPRPRPQTVPRP | 0.136
RRIRMRPPRLPRPRPRPICFPRP | 0.149
RRIRCRPPRLPRPRPRPACKPRP | -0.312
RRIRFRPPRLPRPRPRPDSVPRP | -0.54
RRIRLRPPRLPRPRPRPQNMPRP | -0.232
RRIRPRPPRLPRPRPRPYMGPRP | -0.659
RRIRFRPPRLPRPRPRPHEYPRP | -0.264
RRIRYRPPRLPRPRPRPLGCPRP | -0.198
RRIRQRPPRLPRPRPRPCSNPRP | -0.174
RRIRDRPPRLPRPRPRPRPKPRP | 0.548
RRIRARPPRLPRPRPRPDFHPRP | -0.0502
RRIRMRPPRLPRPRPRPRPVPRP | 1.17
RRIRYRPPRLPRPRPRPNWYPRP | -1.48
RRIRTRPPRLPRPRPRPSMCPRP | -0.377
RRIRLRPPRLPRPRPRPIVDPRP | -0.103
